The target of series [1] is T1, IFN-gamma (Homo sapiens, UniProt P01579 P01579:24-161). The experiment in a line: competition; 30 pM 125I-IFN-gamma, A549 cells. To be noted: tags: Genzyme (Cambridge MA); Upstate Biotechnology for early SELEX rounds; chain copies: 2 inferred.
Experimental: The cells were washed 3 times with PBS. […] Incubations were carried out at 4° C. with shaking for 2 hrs. The cells were washed 2 times with cold PBS to remove free IFN and detached with 0.5% SDS.
The target of series [2] is T1, IFN-gamma. As to the kind of experiment: filter; biphasic 2.7/103 nM. To be noted: tags: Genzyme (Cambridge MA); Upstate Biotechnology for early SELEX rounds; chain copies: 2 inferred. How it is done:
(§1) The determination of equilibrium dissociation constants (Kds) for RNA pools was made subsequent to rounds 5, 8, 12, and 17 to monitor the progress of each SELEX. The Kds of RNA pools for mouse IFN-gamma (Genzyme Inc., Cambridge Mass.) were also determined after rounds 8 and 17. Kds were determined for individual ligands after cloning and sequencing of RNA pools and truncations (described below). Nitrocellulose filter binding was used to determine Kds as follows: filter discs were placed into a vacuum manifold and wetted with 5 ml of mPBS buffer. ^32P-labeled-RNA was incubated with serial dilutions of IFN-gamma in binding buffer for 5–10 min at 37° C. to allow binding to occur. […] The filter discs were dried and counted in a liquid scintillation counter (Beckmann Instruments, Palo Alto Calif.). Equilibrium dissociation constants were determined by least square fitting of the data points using the Kaleidagraph™ graphics program (Synergy Software, Reading Pa.). […] Biphasic binding constants were calculated according to standard procedures. Kds were determined by least square fitting of the data points using the Kaleidagraph™ graphics program.
(§2) The Kds of individual RNAs within each group were determined by nitrocellulose filter binding as described above. The Kds were determined using either a monophasic or biphasic least squares fit of the data.

Another series has as its target IL-4 (Homo sapiens, UniProt P05112 P05112:25-153). The experiment in a line: filter; specificity control. To be noted: tags: R&D Systems.
The target in series [3] is T1, IFN-gamma. As to the kind of experiment: filter; specificity control. The following applies: tags: Genzyme (Cambridge MA); Upstate Biotechnology for early SELEX rounds; chain copies: 2 inferred.
Another series deals with IL-10 (Homo sapiens, UniProt P22301 P22301:19-178). As to the kind of experiment: filter; TEM buffer, 37 C. The following applies: tags: Bachem or R & D Systems; chain copies: 2 inferred.
The target in series [4] is T1, IFN-gamma. As to the kind of experiment: filter; biphasic 1.8/750 nM. The following applies: tags: Genzyme (Cambridge MA); Upstate Biotechnology for early SELEX rounds; chain copies: 2 inferred. How it is done: as §1, §2
For series [5], the target named is T1, IFN-gamma. The experiment in a line: filter; printed as '12 4 nM', decimal uncertain. To be noted: tags: Genzyme (Cambridge MA); Upstate Biotechnology for early SELEX rounds; chain copies: 2 inferred. How it is done:
The determination of equilibrium dissociation constants (Kds) for RNA pools was made subsequent to rounds 5, 8, 12, and 17 to monitor the progress of each SELEX. The Kds of RNA pools for mouse IFN-gamma (Genzyme Inc., Cambridge Mass.) were also determined after rounds 8 and 17. Kds were determined for individual ligands after cloning and sequencing of RNA pools and truncations (described below). Nitrocellulose filter binding was used to determine Kds as follows: filter discs were placed into a vacuum manifold and wetted with 5 ml of mPBS buffer. ^32P-labeled-RNA was incubated with serial dilutions of IFN-gamma in binding buffer for 5–10 min at 37° C. to allow binding to occur. Binding mixes were centrifuged as described above to remove aggregates, aspirated through the filter discs, and then immediately washed with 5 ml mPBS buffer. The filter discs were dried and counted in a liquid scintillation counter (Beckmann Instruments, Palo Alto Calif.). Equilibrium dissociation constants were determined by least square fitting of the data points using the Kaleidagraph™ graphics program (Synergy Software, Reading Pa.). […] Biphasic binding constants were calculated according to standard procedures. Kds were determined by least square fitting of the data points using the Kaleidagraph™ graphics program.

For another series, the target named is TNF-alpha (Homo sapiens, UniProt P01375 P01375:77-233). As to the kind of experiment: FP; no value shown, Kd above 1 uM per footnote; filter binding, DPBS. To be noted: tags: Genzyme or R&D Systems; chain copies: 3.

The source of these data is US5972599, “High affinity nucleic acid ligands of cytokines” (NeXstar Pharmaceuticals, Inc.).

In general, IC50 refers to the concentration at which inhibition is half-maximal. High values mean lower potency, low ones higher potency. As usually defined, the Kd is a measure of binding affinity in units of concentration.

T1 sequence (P01579 24-161, one chain of several): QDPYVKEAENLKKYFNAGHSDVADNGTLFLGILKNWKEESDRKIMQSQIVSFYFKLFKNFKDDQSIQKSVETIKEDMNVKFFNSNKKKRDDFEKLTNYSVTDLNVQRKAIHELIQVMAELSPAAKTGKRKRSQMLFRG
IL-4, sequence (P05112 25-153, one chain of several): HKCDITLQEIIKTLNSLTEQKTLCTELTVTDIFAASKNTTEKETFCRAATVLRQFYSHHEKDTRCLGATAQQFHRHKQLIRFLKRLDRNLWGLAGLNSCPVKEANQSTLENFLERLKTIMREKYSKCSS
TNF-alpha, sequence (P01375 77-233, one chain of several): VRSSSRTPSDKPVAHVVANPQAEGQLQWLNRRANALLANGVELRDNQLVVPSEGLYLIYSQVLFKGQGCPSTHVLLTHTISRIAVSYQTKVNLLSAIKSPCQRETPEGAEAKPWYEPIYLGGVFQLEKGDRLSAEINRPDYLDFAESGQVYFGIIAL
IL-10, sequence (P22301 19-178, one chain of several): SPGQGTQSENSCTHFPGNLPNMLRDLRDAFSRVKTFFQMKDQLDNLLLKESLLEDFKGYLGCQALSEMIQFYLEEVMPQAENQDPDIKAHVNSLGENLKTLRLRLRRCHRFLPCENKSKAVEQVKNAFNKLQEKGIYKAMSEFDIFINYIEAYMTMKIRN
Experimental for IL-10: Internally-labeled RNA transcripts were prepared by including [γ-^32P]ATP in T7 RNA polymerase transcription reactions. Full-length transcripts were purified on 8% denaturing polyacrylamide gels to ensure size homogeneity. Gel-purified RNA was diluted to a concentration of ~5 nM in TEM buffer, heated to 80° C. then chilled on ice to facilitate secondary structure formation. RNA concentrations were kept lower than 100 pM in binding reactions. Briefly, equal amounts of RNA were incubated with varying amounts of IL-10 in 50 µL of TEM buffer for 10 min at 37° C. RNA-protein mixtures were passed through pre-wet nitrocellulose filters (0.2µ) and the filters were immediately washed with 5 mL of binding buffer. Radioactivity retained on filters was determined by liquid scintillation counting. The quantities of RNA bound to filters in the absence of protein was determined and used for background correction. The percentage of input RNA retained on each filter was plotted against the corresponding log protein concentration. The nonlinear least square method to obtain the dissociation constant (K_d).

B1: IFN-gamma 2'NH2-30 (ssRNA)
RNA: GGGAGGACGAUGCGGCAGGUAAUUACAUGAAGGUGGGUUAGGUACUUUCAGGGUCAGACGACUCGCCCGA
modifications: 2'-NH2 all C and U
For the molecule B1, in the series with IFN-gamma [1], the IC50 turned out to be 10 nM. Besides, in the series with IFN-gamma [2], the Kd worked out at 2.7 nM.

B2: IL-10 ligand 43 (ssRNA)
RNA: GGGAGACAAGAAUAAACGCUCAAACAUCGUAUAACUCUAAGGGCCUGGAUAUACGAUGAAUUCGACAGGAGGCUCACAACAGGC
modifications: 2'-F all C and U
In the case of B2, the binding result with IL-4 and in the series with IFN-gamma [3] was “no binding” in each case. In addition, in the series with IL-10, the Kd worked out at 213 nM.

B3: IFN-gamma 2'NH2-17 (ssRNA)
RNA: GGGAGGACGAUGCGGUGGUAGCGCGAUAUAGCGCUGGUAGGGUUGCCGGUGAUCAGACGACUCGCCCGA
modifications: 2'-NH2 all C and U
With B3, in the series with IFN-gamma [4], the Kd was 1.8 nM.

B4: IFN-gamma 2'NH2-17 truncate (ssRNA)
RNA: GGGAGGACGAUGCGGUGGUAGCGCGAUAUAGCGCUGGUAGGGUUGCCGGUG
modifications: 2'-NH2 all C and U
B4: the Kd in the series with IFN-gamma [5] was 12.4 nM.

B5: TNF 12A (ssRNA)
RNA: GGGAGCUCAGAAUAAACGCUCAACUUCUUGGCCCCGUCUCAAUGUCCGUACUUCUUCGACAUGAGGCCCGGAUCCGGC
On to B5, for which the Kd in the series with TNF-alpha was over 1000 nM.
